Measured values as given in PMC10641220, “Pseudomonas aeruginosa AlgF is a protein–protein interaction mediator required for acetylation of the alginate exopolysaccharide” (The Journal of Biological Chemistry, 2023).

What was measured:
[1] = molecular target: T1, AlgXPp (Pseudomonas putida KT2440, UniProt Q88ND0 25-479); test: ITC; MicroCal Auto-ITC200, 20 °C, 50 mM Tris pH 7.8, 150 mM NaCl, 2% glycerol, 50 mM arginine, 50 mM glutamic acid; 1.86 mM AlgJ (syringe) into 188 μM AlgF (cell); 4.17 mM AlgF (syringe) into 500 μM AlgX (cell); 2.97 mM AlgJ (syringe) into 170 μM AlgX (cell); conditions: both partners purified
T1 construct: AlgX of Pseudomonas putida KT2440, codon-optimized synthetic gene of full-length AlgXPp in pET24b; AlgX is a periplasmic protein
T1 sequence (looked up): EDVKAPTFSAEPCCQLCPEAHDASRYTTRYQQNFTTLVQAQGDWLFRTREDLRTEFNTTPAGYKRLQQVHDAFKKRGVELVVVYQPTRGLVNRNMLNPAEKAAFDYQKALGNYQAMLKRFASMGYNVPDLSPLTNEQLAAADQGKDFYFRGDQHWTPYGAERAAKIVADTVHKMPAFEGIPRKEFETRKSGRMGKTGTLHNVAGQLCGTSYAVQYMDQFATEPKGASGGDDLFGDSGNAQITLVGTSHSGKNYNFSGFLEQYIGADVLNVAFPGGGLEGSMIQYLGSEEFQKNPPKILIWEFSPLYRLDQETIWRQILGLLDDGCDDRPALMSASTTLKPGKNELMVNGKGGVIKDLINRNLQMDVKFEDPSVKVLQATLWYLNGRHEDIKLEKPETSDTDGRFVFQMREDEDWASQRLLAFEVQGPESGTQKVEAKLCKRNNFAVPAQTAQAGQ

[2] = molecular target: T2, AlgJPp^75-370 (Pseudomonas putida, UniProt Q88ND3 75-370); test: as above; conditions: both partners purified
T2 construct: AlgJ of Pseudomonas putida, residues 75-370
T2 sequence (looked up): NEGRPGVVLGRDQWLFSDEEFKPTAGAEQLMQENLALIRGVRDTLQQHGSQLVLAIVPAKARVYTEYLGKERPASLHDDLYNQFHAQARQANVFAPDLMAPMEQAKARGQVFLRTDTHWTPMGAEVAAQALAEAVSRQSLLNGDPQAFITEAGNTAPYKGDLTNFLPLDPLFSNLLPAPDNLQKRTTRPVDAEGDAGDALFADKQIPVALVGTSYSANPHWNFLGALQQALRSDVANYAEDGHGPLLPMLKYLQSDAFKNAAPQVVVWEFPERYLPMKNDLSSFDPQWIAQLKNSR

B1: AlgFPp^29-215 (domain or fragment, Pseudomonas putida KT2440, UniProt Q88ND4 29-215, looked up)
chain: DAALYGPSAPKGSTFVRLYNATSAPAAASVGNTQIKQVGAQASSDFSFLPGGDYTAQVGGKSVPVKLASDKYYTLVNSNSGSPKLIEEPPFKNKQKALVRVQNLSDQQLTLKTADGKTEVVKPVAANGRGEREINPVKVNLALYQGDKKVGDVKPVALERGEAAVLYVTGSGNALSPVWVTRPVASN
notes: the results text calls the construct 30-215; Cloned in pET28a with a 3' stop codon; also called AlgFPp^30-215; source: E. coli BL21 CodonPlus (λDE3), purified (Ni-NTA, Superdex 200 SEC)
[1]
  Kd: 178 ± 5 µM
[2]
  Kd: 86 ± 12 µM
